Laboratory results from patent US6350431B1, “Compounds” (Nycomed Imaging AS, priority 1997, dated 2002).
One block for each molecule: values may come before it.

Key:
[1] = Solubility of Sudan III; type: physicochemical
[2] = tested on: HT-29 tumors; assay: Biodistribution of chromophore-polymer in HT-29 tumored mice after intravenous injection; type: in vivo, female immunodeficient mice; settings: for injected dose localized in the tumor: after one hour, solution in phosphate buffered saline injected
Protocol: General Method Used For the Measurement of Chromophore-Polymer Distribution in the Mouse
Tac:N:NIH(S)-nufDF, female immunodef icient mice
Tac:Cr:NCr-nufBr, female immunodeficient mice
HT29-Human Colon Carcinoma
The mice were randomised into groups based on tumor volumes. On the day of the study, the test articles (Polymers 1,2) were injected into the mice via the tail vein. Chloroaluminium phthalocyanine tetrasulfonate was used as a reference compound (control) in one group of mice in these studies. […] The blood was collected by heart puncture and put into either EDTA or Lithium Heparin tubes. The samples were then spun down and the plasma was collected and weighed. The spleen, liver, kidneys, muscle and tumor were collected, rinsed with PBS and weighed in pre-tared tubes. The samples were then either refrigerated for immediate analysis or frozen at −20 degrees Celsius and subsequently analysed.
B) Plasma Collection and Preparation
Plasma was collected in tared Eppendorf tubes and the tubes were weighed. To each tube was added 1 mL of ethanol. The contents of the tubes were mixed with a vortex mixer and then micro-centrifuged at 14000 rpm for 2 min. The supernatant liquid was transferred by pipette into a clean and labelled Eppendorf tube. This procedure was repeated for all plasma samples. Each sample was transferred to a clean cuvette and the amount of chromophore was determined by absorbance at a predetermined wavelength. Concentration of the chromophore in the sample was determined by comparison with a standard curve generated from known concentrations of chromophore.
C) Organ Collection and Preparation
Organs were removed from the mice, placed in tared sample tubes, and the new weights were recorded. To each tube was added 1 mL of deionised water, and the organs were homogenised. The homogenate was transferred into a tared Eppendorf tube and the weight was recorded. To this homogenate was added 500 μl of ethanol, the mixture was mixed by vortex mixer, and the contents of the tube was centrifuged in a micro-centrifuge at 8000 rpm for 2 min. The supernatant was transferred by pipette into a clean Eppendorf tube. To the residual pellet was added 500 μl of ethanol, the mixture was mixed by shaking vigorously in a vortex mixer, and the sample was centrifuged again. The supernatants were combined, transferred to a clean cuvette, and the concentration of the chromophore was determined spectroscopically at pre-determined absorbance by comparison with the standard curve. The mean concentration of the chromophore in each organ was determined by regressional analysis.

[3] = tested on: HT-29 tumors; assay: Photographic / visual light imaging of HT-29 tumors from mice 24 hours post injection of contrast agent; type: in vivo, female immunodeficient mice
Protocol: FIG. 4 is a photograph taken under room fluorescent light of female immunodeficient mice with exposed human HT-29 tumors 24 hours post intravenous (tail vein) injection with 0.1 mg/(g body weight) in PBS of the blue contrast agent NC100526. The labeled sheet to the right of the mice was spotted with PBS solutions of several contrast agents of this invention and then dried in order to show how they appear under various illumination and imaging conditions. The tumors (indicated by arrows) have been sliced to expose their interiors as well as their exteriors.
The light source was ambient fluorescent room light.
The photograph was taken with black-and-white infrared film using irradiation at 780 nm from an array of light-emitting diodes. These conditions gave maximum absorption and contrast enhancement of NC100448 as evidenced by the darkened spot of contrast agent on the paper chart.
FIGS. 8a and 8b are photographs of two views taken from different angles of HT-29 tumors sliced open and removed from mice at 24 hours post injection with 10 mg/(g body weight) of NC100505 in PBS and irradiated with 366 nm wavelength light. […] In the black and white photograph they appear as bright spots. Other organs and the skin appear normal.
FIG. 10a is a photograph of a collection of excised tumors viewed under ambient fluorescent room light. The top row contains tumors resected from mice at 24 hours post i.v. injection with NC100505 in PBS. The second, third, and fourth rows are tumors resected from mice 24 hours post i.v. injection with PBS solutions of NC100526, NC100448, and NC100524, respectively. […]
FIG. 11 is a photograph of a set of excised tumors irradiated with 780 nm infrared light that were removed from mice 24 hours post injection with PBS solutions of NC100448 (top row) and indocyanine green (bottom row). The image was recorded with an infrared sensitive CCD camera (Bischke, Type N-CCD-4024, fitted with a Computar TV Zoom lens 1:1.2/12.5-75) on VHS tape (Maxell HGX Plus) at 30 frames/sec using a Panasonic AG-1310P HQ Video Cassette Recorder with super 4-Head VHS SQPB). […]

[4] = one hour post intravenous injection of phosphate buffered saline solution, mice with HT-29 tumors
[5] = three hours post intravenous injection of phosphate buffered saline solution, mice with HT-29 tumors
[6] = female immunodeficient mice with HT-29 tumors
[7] = 3 hr, i.v. 0.05 mg/(g body weight) in PBS, HT 29 tumored mice
[8] = 6 hr, i.v. 0.05 mg/(g body weight) in PBS, HT 29 tumored mice
[9] = 24 hr, i.v. 0.05 mg/(g body weight) in PBS, HT 29 tumored mice
[10] = at 24 hours, i.v. 0.05 mg/(g body weight) in PBS
[11] = three hours versus one hour post intravenous injection
[12] = 6 hr after injection, Table 2, female immunodeficient mice with HT-29 tumors
[13] = 48 hr after injection, Table 2, mice with HT-29 tumors
[14] = within 24 hours, Table 2 experiment

solubility in sesame oil [1]: soluble in sesame oil
solubility in water [1]: very water insoluble
Molecule: Oc1ccc2ccccc2c1N=Nc1ccc(N=Nc2ccccc2)cc1 [Sudan III]

detection in the tumor [2, 4]: negligibly detected
detection in the tumor [2, 5]: negligibly detected
Molecule: CC1(C)C(/C=C/C=C/C=C/C=C2\N(CCCCS(=O)(=O)O)c3ccc4ccccc4c3C2(C)C)=[N+](CCCCS(=O)(=O)[O-])c2ccc3ccccc3c21 [indocyanine green, reference compound]

Molecule: Aluminum Chlorophthalocyanine Tetrasulfonyl Chloride Polymer With PEG5,000-α,ω-diamine [Polymer 2]
injected dose localized in the tumor [2, 6]: 2.5%
detection in the tumor [2, 4]: detected in the tumor

Molecule: Aluminum Chlorophthalocyaninetetrasulfonyl Chloride Polymer With PEG3,400-α,ω-diamine [Polymer 1]
injected dose localized in the tumor [2, 6]: 4%
detection in the tumor [2, 4]: detected in the tumor

Molecule: Bisthioether 2:1 Dye:Polymer Reaction Product Between 2-[2-[2-chloro-3-[[1,3-dihydro-1,1,-dimethyl-3-(3-sulfopropyl)-2H-benz[e]indol-2-ylidene]ethylidene]-5-(ethoxycarbonyl)-1-cyclohexen-1-yl]ethenyl]-1,1-dimethyl-3-(3-sulfopropyl)-1H-benz[e]indolium, Inner Salt, Sodium Salt and Disodium PEG3,400-α,ω-dithiolate [NC100448]
Plasma [2, 7]: 14.33 ± 1.33 percent injected dose of the contrast agent per gram of tissue
Tumor [2, 7]: 5.57 ± 0.73 percent injected dose of the contrast agent per gram of tissue
Plasma [2, 8]: 8.44 ± 1.33 percent injected dose of the contrast agent per gram of tissue
Tumor [2, 8]: 8.6 ± 1.53 percent injected dose of the contrast agent per gram of tissue
Plasma [2, 9]: 0.46 ± 0.40 percent injected dose of the contrast agent per gram of tissue
Tumor [2, 9]: 7.53 ± 0.74 percent injected dose of the contrast agent per gram of tissue
clearance of contrast agent from the blood (in words) [2, 10]: largely cleared
concentration of contrast agent in the tumors (in words) [2, 10]: remained relatively high
contrast agent in the muscle (in words) [2, 10]: not increased
detection in the tumor [2, 4]: detected in the tumor
detection in the tumor [2, 5]: detected in the tumor
concentration of the contrast agent in the blood, FIG. 3B relative to FIG. 3A [2, 11]: decreased
concentration of the contrast agent in the tumor, FIG. 3B relative to FIG. 3A [2, 11]: increased
appearance of tumors, black-and-white infrared film, irradiation at 780 nm ([3]; 24 hours after injection of 0.05 mg/(g body weight) in PBS, versus control tumors): uniformly darker than control tumors
appearance of excised tumors irradiated with 780 nm infrared light, infrared sensitive CCD camera ([3]; 24 hours post injection in PBS, compared to tumors from mice injected with ICG): significantly darker
contrast agent / darkening along the tumor edges ([3]; 24 hours post injection, sliced tumors): do not show darkening around the edges

Molecule: ClAlPc(SO2NHPEG5000)4 [Example 20]
injected dose localized in the tumor [2, 6]: 2.5%

Molecule: [NH(PEG3400)NHSO2PcAlCl (SO3H)2SO2]n [Example 18]
injected dose localized in the tumor [2, 6]: 4%

Molecule: [PcAlCl(SO3H)3SO2NH]2[PEG 10,000] [NC100481]
Muscle [2, 12]: 10.3 ± 17.9 percent injected dose of the contrast agent per gram of tissue
Plasma [2, 12]: 7.4 ± 0.3 percent injected dose of the contrast agent per gram of tissue
Tumor [2, 12]: 21.0 ± 7.1 percent injected dose of the contrast agent per gram of tissue
Tumor ([2]; 24 hr after injection, Table 2, mice with HT-29 tumors): 16.6 ± 3.9 percent injected dose of the contrast agent per gram of tissue
Muscle [2, 13]: 59.5 ± 42.9 percent injected dose of the contrast agent per gram of tissue
Tumor [2, 13]: 9.1 ± 4.5 percent injected dose of the contrast agent per gram of tissue
concentration of contrast agent in the tumor (in words) ([2]; after 48 hours, Table 2 experiment): remained at a high concentration
clearance of contrast agent from the blood (in words) [2, 14]: cleared
clearance of contrast agent from the muscle (in words) [2, 14]: cleared

detection in the tumor [2, 4]: negligibly detected
Molecule: chloroaluminum phthalocyanine tetrasulfonate [reference compound]
